The values that follow come from publication PMC8928829 (mAbs, 2022).

Common to all, as to assay: BLI
Common to all, as to conditions: both partners purified

In assay [1] the target is T1, recombinant SARS-CoV-2 RBD, Alpha (B.1.1.7), N501Y (SARS-CoV-2, Alpha (B.1.1.7) RBD N501Y, N501Y).
T1 construct: also called RBD_(N501Y); source: bought: ACRO Biosystems

For assay [2], the target named is T2, recombinant SARS-CoV-2 RBD, Beta (B.1.351), K417N, E484K, N501Y (SARS-CoV-2, Beta (B.1.351), K417N | E484K | N501Y).
T2 construct: source: bought: ACRO Biosystems

For assay [3], the target named is T3, recombinant SARS-CoV-2 RBD, Gamma (P.1), K417T, E484K, N501Y (SARS-CoV-2, Gamma (P.1), K417T | E484K | N501Y).
T3 construct: source: bought: ACRO Biosystems

Assay [4] concerns the target T4, recombinant SARS-CoV-2 RBD, Delta (B.1.617.2), L452R, T478K (SARS-CoV-2, Delta (B.1.617.2), L452R | T478K).
T4 construct: also called Delta variant RBD; source: bought: ACRO Biosystems

The target of assay [5] is T5, SARS-CoV-2 RBD Alpha (B.1.1.7) N501Y (SARS-CoV-2, Alpha (B.1.1.7) RBD N501Y, N501Y).
T5 construct: also called RBD N501Y; source: bought: ACRO Biosystems

The target in assay [6] is T6, SARS-CoV-2 RBD Beta (B.1.351) (SARS-CoV-2, Beta (B.1.351), K417N | E484K | N501Y).
T6 construct: also called B.1.351/K417N, E484K, N501Y; source: bought: ACRO Biosystems

In assay [7] the target is T7, SARS-CoV-2 RBD Gamma (P.1) (SARS-CoV-2, Gamma (P.1), K417T | E484K | N501Y).
T7 construct: also called P.1/K417T, E484K, N501Y; source: bought: ACRO Biosystems

Assay [8] deals with T8, SARS-CoV-2 RBD Delta (B.1.617.2) (SARS-CoV-2, Delta (B.1.617.2), L452R | T478K).
T8 construct: also called B.1.617.2/L452R, T478K; source: bought: ACRO Biosystems

B1: NIH-CoVnb-112 (VHH)
VHH: DVQLQESGGGLVQPGGSLRLSCAASGLTLDYYAIGWFRQAPGKEREGVSCISSSDGSTYYADSVKGRFTTSRDNAKNTVYLQMNSLKPEDTAVYYCAAVPSTYYSGTYYYTCHPGGMDYWGKGTQVTVSS
As a reminder, the Kd is the concentration at which binding is half-saturated. For orientation: kon means the rate constant with which the complex forms. For B1, the Kd was determined as 3 nM in assay [1], 4.28 nM in assay [2], 4.16 nM in assay [3] and 1.66 nM in assay [4]. For the same molecule, in assay [4], the kon worked out at 461000 M⁻¹ s⁻¹.

B2: NIH-CoVnb-112 (VHH)
VHH: B1 VHH
What is called koff is the rate constant with which the complex falls apart. Turning to B2, the koff in assay [5] is 0.000428 s⁻¹; in assay [6], 0.000705 s⁻¹; in assay [7], 0.000822 s⁻¹; in assay [8], 0.000609 s⁻¹. For the same molecule, the values for the kon in assay [5], in assay [6] and in assay [7] were 153000 M⁻¹ s⁻¹, 201000 M⁻¹ s⁻¹ and 214000 M⁻¹ s⁻¹, respectively.
